No end group written: not given here. fl = not defined here
Key:
[1] = target: ^D1-3YAClpA^xl (cross-linked ClpA pseudohexamer with alternating WT and defective D1 pore loops) (E. coli) (UniProt P0ABH9)
[2] = target: T1, ClpS adapter (E. coli, UniProt P0A8Q6 1-106); assay: fluorescence polarisation
T1 sequence: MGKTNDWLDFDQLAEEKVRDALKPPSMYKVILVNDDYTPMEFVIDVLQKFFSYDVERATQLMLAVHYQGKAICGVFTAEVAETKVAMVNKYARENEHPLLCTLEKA

Molecule | KM of ClpAP degradation of ^UFtitin-ssrA, against ClpA^xl [1] | binding result [2]
^UFtitin-ssrA (ssrA-tagged titin^I27 domain unfolded by chemical modification of its two partially buried cysteines) (domain or fragment) | 3 fold | 
LLYVQRDSKEC-fl (reading uncertain; also: printed as LLYVQRDSKEC-fl) [LLYVQRDSKEC-fl fluorescent N-degron peptide] |  | binds

From paper PMC8666677 (The Journal of Biological Chemistry, 2021)
